# Results from the DeepSol protein solubility set.
# Assay: soluble on expression in E. coli; label from the status in PepcDB or PDB records
row,Sequence,soluble on expression in E. coli
1,MGSDKIHHHHHHMQFGAKPLFENISVKFGGGNRYGLIGANGCGKSTFMKILCGDLDPSGGNVSLDVNERLGKLSQNQFGYEEFNLIDTVIMGHRELWKVKQERDRIYSLPEMSEEDGITVANLEMDFAEMDGYTAESRAGELLLGVGIGIDSHFGLMSEIAPGLKLRVLLAQALFSDPDVLLLDEPTNNLDIDTIRWLQDMLNQRSSTMVIISHDRYFLNSVCTHMADLDYGELRVYPGNYDEYMQAATQARERLLSDNAKKKAQISELQTFVARFSANASKAKQATSRARQIDKIKLDEVKASSRVNPFIRFEQEKKLFRNALVIENLTKGYDTPLFKDLNLIVEVGERIAVLGENGVGKTTLLRTLIHDIPQDAGTIQWSENANIGYYAQDHESDFANEMTLFEWMSQWRKPEDDDQSVRGILGRMLFGSDDIKKSVKVLSGGEKGRMLFGKLIMQKANILVLDEPTNHMDMESIESLNNALEMYEGTLIFVSHDRAFVSSLANRILEVTHTGVNDFRGTYDEFLASKGIEV,not soluble
2,MTWFIDRRLNGKNKSTVNRQRFLRRYKAQIKQSISEAINKRSVTDVDSGESVSIPTDDISEPMFHQGRGGLRHRVHPGNDHFIQNDRIERPQGGGGGGSGSGQGQASQDGEGQDEFVFQISKDEYLDLLFEDLALPNLKKNQHRQLNEYKTHRAGFTSNGVPANISVVRSLQNSLARRTAMTAGKRRELHALETELETISHSEPAQLLEEERLRREIAELRAKIERVPFIDTFDLRYKNYEKRPEPSSQAVMFCLMDVSGSMDQATKDMAKRFYILLYLFLSRTYKNVEVVYIRHHTQAKEVDEHEFFYSQETGGTIVSSALKLMDEVVKERYDPGQWNIYAAQASDGDNWADDSPLCHEILAKKLLPVVRYYSYIEITRRAHQTLWREYEHLQATFDNFAMQHIRDQEDIYPVFRELFQKQSANQSALEHHHHHH,soluble
3,MGHHHHHHSHMEGSETGSREGSDVACTEGICNHDEHGDDSCVHHCEDKEDDGDSCVECWANSEENDTKGKNKKKKKKSKILKCDEHIQKLGSCITDPGNRETSGNTMHTVFHRDKTKDTHPESCCSSEKGGQPLPWFEHRKNVPQFAEPTETLFGPDSGKGAKSLVELLDESECTSDEEIFISQDEIQSFMANNQSFYSNREQYRQHLKEKFNKYCRLNDHKRPICSGWLTTAGAN,not soluble
4,MGSDKIHHHHHHMEREKVELFKEVLKKLHKGEDVESLKKQFGELLSQIPPFEIPVIEQELLKSGEIDVRDIIKMCDLHVEFFRGAVSEAGREIEKLPNGHPLRTLYEENKQILKDAEALSLLASSMFSLPKDDPRRKQFYEKLVQHVSELHRIGLTHYTREEMLIFPYIERRGITAVPTVLWSKHDETRLKIRLLLNLLKKEESDERLKEEALELSRMLSDMVFRENNILYPTLKVLLTEGEWKAIKMLEKDIGYYKIEVTEEWETPEKPLLPHRNCLRRPIPFRGLGGSRHVYHLQIQ,not soluble
5,MKIVLAYSGGLDTSIILKWLKETYRAEVIAFTADIGQGEEVEEAREKALRTGASKAIALDLKEEFVRDFVFPMMRAGAVYEGYYLLGTSIARPLIAKHLVRIAEEEGAEAIAHGATGKGNDQVRFELTAYALKPDIKVIAPWREWSFQGRKEMIAYAEAHGIPVPVTQEKPYSMDANLLHISYEGGVLEDPWAEPPKGMFRMTQDPEEAPDAPEYVEVEFFEGDPVAVNGERLSPAALLQRLNEIGGRHGVGRVDIVENRFVGMKSRGVYETPGGTILYHARRAVESLTLDREVLHQRDMLSPKYAELVYYGFWYAPEREALQAYFDHVARSVTGVARLKLYKGNVYVVGRKAPKSLYRQDLVSFDEAGGYDQKDAEGFIKIQALRLRVRALVEREGHGA,soluble
6,MGSDKIHHHHHHMRVALLMGGVSREREISLRSGERVKKALEKLGYEHTVFDVREDFLKKVDQLKSFDVVFNVLHGTFGEDVTLQAILDFLGIRYTGSDAFSSMICFDKLVTYRFLKGTVEIPDFVEIKEFMKTSPLGYPCVVKPRREGSSIGVFVCESDEEFQHALKEDLPRYGSVIVQKYIPGREMTVSILETEKGFEILPVLELRPKRRFYDYVAKYTKGETEFILPAPLNPSEERLVKEMALKAFVEAGCRGFGRVDGIFSDGRFYFLEINTVPGLTETSDLPASAKAGGIEFEELVEIILKSAFLKEGVRV,not soluble
7,MDQKSTTCLEALAKLSQQREHQTTPATLCSSEHFFANETIYSDATFLSTTEEAFISSPSSSTQGPKPGLKRVSTGPMTRILEGCQNDKPNSPELERVEEAEDNYSGTSSEEAFSQGIPYPHQVGGHGALSSFERGRVLKPAAKKEIDFYNFIYSDNLPSELEWLRTVTPKYFGQRKTQAKAKRILENQVTPFSQTSSVPVNTVLHIDRKDSERNIWKDQVGELVMDTNPWARACLLKELQKEDEVKSFIILEDLTCHLKKPCVLDCKMGTRHYDDDATEEKKKAHIEKATKTTSSSTGIRFTGMQVYKLPSHTFLFHDKYYGRQLKSHELKNELFEFFHNGVLLRVDIIEQFLSKLQWLYQHLENQHYFNFYSSSLLFVYEGDEMATCPISDVRMIDFAHTQRCVEEQQNDGYLFGLSNLIHLMKSLLEDERNEMR,soluble
8,MGHIIDISKWNGDINWSIAKQHIDFIIARVQDGSNYVDPLYKGYVQAMKQHGIPFGNYAFCRFVSIADAKKEAQDFWNRGDKSATVWVADVEVKTMNDMRAGTQAFIDELYRLGAKKVGLYVGHHMYTPFGMANVKSDFVWIPRYGGNKPAYPCDIWQYTETGNVPGIGKCDLNSLIGNKSLSWFTESATQESVQAPTQNIIQSGAFSPYETPDVTGALTSLKMTAKFILKPDGLTYFISDPTSDAQLNAMKEYLDRKGWWYEVK,not soluble
9,RAAIHDIATPVAIVDEQGRVVNLNAAAEQMLAVDKHEALTEPLNDFLGGDDIATDGGSSRVSIEADGRHREYKVQQTALRDETGTQLGYTVVFQDIT,soluble
10,MGSDKIHHHHHHMARHALMRTELLPTFGMPDKKVDGFIARIRERHPKMIFGYPSAMSHIVPCAEQRGVRFDDLGIKVVFCTSERLYNHQRETIVRLFGCPVANGYGGRDAGFIAHECPNGNMHVITEDIVVEIIGEAGRVLPHRQSGKIVVTHLATRDYPFIRYRTGDIASLSEETCSCGRGLPLLTDIQGRNTDFVVAAEGTVLHGLALIYVVHDLNEVRTFKIVRKNREHTRILLAPEAGGDMTGIDTIIIDGFRCRLGAKVTVKFVDAVLAEKSGKFCYVASHVVLH,not soluble
11,MKYFMGPHVWQRTIADLEALGHQRVDTFEQAEAYINTEPRPLRIPTIPESVGFVQHCFTGVNQLIDAHVITETGVRWANMAGGFAQPVAESALGLMLSQAHHHKAFALAGTWRVARELDRIQQWLHSVGEPRCVVIFGAGGIAKELIRLLEPFGMHVIAVNRSGRSVAGADETFAMKDAQGLWSRGDFIVNILPLTQETKGLVDRDVFAQMKPSAIFINVGRGATVVTDDLVDALQRGVIAGAGLEVVDPEPLPDSHALHSMPNCTITPHMAASDHVAELHVARIFDANAQAFTRGETMPTEVNPHLGY,not soluble
12,MSLRMKVFEIVKSSTENEIVRIHVELPRLKYLKDSNFEEKFNSEVEEKIKKFVNEVKGIAQEDHDKDVQHTPYEAYVSVDVRYEGKDFLSFVVYYYQFTGGAHGITFFETYNIDLKNSKVLKLYDIIKEEAEDTIKSNILKQIEQNNTDFFPDAPMNILKDDIFSREFTISKDGLIIMYPHYDLAPYASGMPEFVIPWNVIEKFLKYDILSLLKEGHHHHHH,soluble
13,MSLSNQEPIANYKFNYKTTANKVMKNINLSGKTIIITGGYSGIGLEMTKQLSRAGAKIIIPARRMEVAKKNLSKIKNIDILPLDLTNPESIHQFAESFLQNNSKLDILINSAGLMYLPLKRDSRGIEYHFATNHLGHYQLTLELLPALKNAKISRVINLSSRAQQMTPLLEDWNFEKIENYNPQIGYQQSKTANVLFSIKLDELGKKYGIRSFAVHPGMIPMTNIGRQNSPITPWLRYLADYFKLIHIPVFFNALKSGFDRSKYRYLKTIAQGAATPLWASTSPDLEGKGGLYCEDLNIARLMTSEEANNFSGGLRPHAIDHNDADRLWQISKNITGLDEGHHHHHH,not soluble
14,MGSDKIHHHHHHMLDIKYYVLIDAIATHGTVHDAAAAIGITQPAATHRIREMERRLGVALFHREGRRLTLSASGERLLDTAHAVLPQLRNAELEAWQLARRAEPALRLGIGPYDTFSRAIPHLYDQHERDIDLVRLPMADMTTALLANRVDMICMIEVPSQRGIAHQLLFEEPLVAVLPPDHPDAQSDTIPAEVFDRGRHFTYSITPESGHEFEHFFQPAGVYPSHMVQIESVALILELVAAGKGVSILSRWAARDAHQAGHVVMRPLAGDIPRIPWYLAYTQTPHIAAVAEPLADTLRHLYRADE,not soluble
15,MMGFEKVEHLLPDTVLDIVDVIGLAATEQLVKAIGGARFKFGKGKVDTERLAILVEAIGEVKTHELLQVYGGEELYVPRCGKALIQLRNHRFYQEFVKLRDIDKKSGLMAMTKLCPKYGISSRTGYTIINEMSRPAAQQAALF,not soluble
16,MLLQVHRLLFEKFYPWAGRDRLELVPHLSVWKGPKGAPRRTFFESPAMIERAVDYALSLASKKQGFMQKPGEVMGLLCFAHPFLDGNGRSILLFYMELSYRAGFAIDWASTRKDDYLQALDDEIHNPGKGHL,soluble
17,MGSDKIHHHHHHMRLFRKEPKAEQLKVIIIGAGEVGYHIAHRLTRENKQVVVVDQQPEALRRVAEALDVQTIRGSGSSPVVLHDAGAEDADIILAVTDSDEINIIACLFANIISPASTKLARIRNEEYTLYRDALAQDILNISMIINPEVEVVKNIDRLLSLPGAVDYSEFADGRIRMVGMRICSGPLVGVRLMNFRTVISDGDVIIAAIVRNDELIIPTGMDEIRADDVVYFVCTESSLESVRNVVAALEDPIRSALIVGGGNIGMRLATLFERKGYHTKLVDRDEERCAVLAEKLNSTIVLHGDGTDQDLLREENAGTMDAVVCLTSDEETNILCSLLAKNMGVRKTVARINKVAYQPLVRAIGIEHSVSPRLSAVNSILHYIRKGKVLSSVAIRGEEAEVMEALAEAQSDIVGRPIHKLSFPKGALVLALVRGTEVVIPSGDTVIEPQDRILILSTRQAVSDVEQALMVKLKAY,not soluble
18,MSLSTKNHFIFPTYVQMYPYSKDRPFLKQVREKLRYYGYKWLYQKQCSQLVDFLNTETQWQSLFTQDYYRTNTILTTFCDKRFSASERLTAITENLRLAEEKMGRSLCQQLLDQQHIVLTQLTEDLRLSLSINHIDPFEGYFSINIRNQNNERVYDSSFTFLSPNKLLIASIQGPSSDNAQELVKQATKALHGMRPMFMLVNGFKMLAEKWQCELVGIPHKAQGKYRLSARSKILFNYDEFWQENQGEYRHNYWQLPLHIERKQLEDIASKKRSMYRKRYEMLDQMALDIQQLEGHHHHHH,soluble
19,MSLKQIPLAERMRPKTLADYVGQQHLIGSGAVLRQMIEQGQTPSMILWGPPGVGKTTLAEIIAHEVDAPFYTLSAVSSGVKEVREVIADIESNRGNLFDKGGRAILFIDEIHRFSKSQQDSLLAAVERGIVTLIGATTENPSFEVIRPLLSRCQVYVLKPQSDEDLLLLAHRAIDRDELLAAKHPVLEETEALLLYAGGDARKLLNILDLLATSEVEDRLVITNEKIRQRLQENPAAFDKGGELHYDIASAFIKSIRGSDPDAAIYWLARLIDGGEEPSFIARRLIISASEDIGLANPNAMLIAMACAEALDRIGWPEGRIPLAEATIYLATSEKSNSAYLAIDSALEYVRQSGNLPVPLHLRNAPTRLMADLDYGKGYKYSHDFPEHFVSQQYLPDKAANTSFWTPQMHTVHEAKLGERMKRWWKREKSQKDEGHHHHHH,soluble
